Source: the nanobody polyreactivity screen of Harvey et al. (2022)

Experiment: yeast display, Sf9 membrane polyspecificity reagent, FACS + sequencing; frameworks hold sequencing errors
How it was run: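 A nanobody's polyreactivity label depends on the gate it was sorted from. Yeast display cells were stained with 10% biotinylated, detergent-solubilized Sf9 membrane reagent for 1 hour at 4 °C, enriched on streptavidin microbeads and sorted by FACS. The low and high (top ~1%) gates were set on anti-HA fluorescence for expression and streptavidin fluorescence for reagent binding.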

QVQLVESGGGLVQAGGRLRLSCAASGLTFTYNAMGWYRQEPGKERELVAAITSGGNTNYADSVKGRFTISRDNAKNTVYLQMNSLKPEDTAVYYCATDRKNGISGRYGYWGQGTQVTVSS
polyreactivity (PSR sort gate): low polyreactivity

QVQLVESGGGLVQAGGSLRLSCAASGRTLGPYTMGWYRQAPGKERELVAVISSRTGRTYYADSVKGRFTISRDNAKNTVYLQMNSLKPEDTAVYYCNAGGRYHAPSGDYWGQGTQVTVSS
polyreactivity (PSR sort gate): low polyreactivity

QVQLVESGGGLVQAGGSLRLSCAASGSIFFIYAMGWYRQAPGKERELVAAISWSDDSTYYADSVKGRFTISRDNAKNTVYLQMNSLKPEDTAVYYCAARYYIGYGHRTYGYDYWGQGTQVTVSS
polyreactivity (PSR sort gate): high polyreactivity

QVQLVESGGGLVQAGGSLRLSCAASGSIFPSYAMGWYRQAPGKERELVAAISTWNDGGTYYADSVKGRFTISRDNGKNTVYLQMNSLKPEDTAVYYCAADSPKYYYDYDYWGQGTQVTVSS
polyreactivity (PSR sort gate): low polyreactivity

QVQLEESGGGLVQAGGSLRLSCAASGRIFLTYAMGWYRQAPGKERELVAAIRSRSGTTYYADSVKGRFTISRDNAKNTVYLQMNSLKPEDTAVYYCAAGGKSRSYYWGQGTQVTVSS
polyreactivity (PSR sort gate): high polyreactivity

QVQLVESGGGLVQAGGSLRLSCAASGNIFSYNAMAWYRQAPGKERELVAAITTSSGRTYYADSVKGRFTISRDIAKNTVYLQMNSLKPEVTAVYYCNAVQRYQMGYWGQGTQVTVSS
polyreactivity (PSR sort gate): high polyreactivity

QVQLVESGGALVQAGGSLRLSCAASGFIICYYAMGSYRQAPGKDRELVAAITSGTSTSYADSVKGRFTISRDNAKNTVYLQMNSLKQEDTAVYYCGADVVRSNFYGTFLYDYDYWGQGTQVTVSS
polyreactivity (PSR sort gate): low polyreactivity

QVQLVESGGGLVQAGGSLRLSCAASGRTLASNAMGWFRQSPGKERELVAAINRGGSTYYADSVKGRFTISRDNAMNTVYLQMNSLKPEDTAVYYCAVDRYRYPFDYWGQGTQVTVSS
polyreactivity (PSR sort gate): low polyreactivity

QVQLVESGGGLVQAGGSLRLSCAASGSTFGHYAMGWSRQAPGKERELVAVISRSGARTYYADSVKGRFTISRDNAKNTVYLQMNSLKPEDTAVYYCATTYATNYDYWGQGTQVTVSS
polyreactivity (PSR sort gate): high polyreactivity

QVQLEESGGGLVQAGGSLRLSCAASGFTFYRDTMGGYRQAPGKERELFAAITRDGSTYYADSVKGRFTISRDNAKYTVSLQLNSLKPEDTAVYYWNARGTVPWYGYDYWGQGTQVNVSS
polyreactivity (PSR sort gate): high polyreactivity

QVQLVESGGGLVQAGGRLRLSCAASGSTFVRNAMGWYRQAPGKERELVAAITGTGDSTYYADSVKGRFTISRDNAKNTVYLQMNSLKPEDTAGYYCDANSDAYRYWYDYWGQGTQVTVSS
polyreactivity (PSR sort gate): low polyreactivity

QVQHVESGGGLVQAGGSLRLSCAASGSIFRRYDLGWSRQAPGKERELVAAISSSGGSTYYADSVKGRFTISRDNAKNTVYLQMNSLKPEDTAVYYCAADIYDDDRSESTEYDYWGQGTQVTVSS
polyreactivity (PSR sort gate): low polyreactivity

QVQLVESGGGLVQAGGSLRLSCAASGSTFGINTMGWYRQAPGKERELVATISQRGTRTYYADSVKGRFTISRDNAKNTVYLQMNSLKPEDTAVYYCNKDVYLYYYTRRSGRLDYWGQGTQVTVSS
polyreactivity (PSR sort gate): high polyreactivity

QVQLVESGGGLVQAGCSLRLSSAASGFTFAYYVMGWYRQAPGKERELVAAISISGGRTYYADSVKGRFTISRDNEKNSVYLQMNRLKPEETAVYYCAADRRTDGHDYWGQGSQVTVSS
polyreactivity (PSR sort gate): high polyreactivity

QVQLVESGAGLVQAGGSLRLSCAASGLIFQSNAMVWYRQAPGKERELVAAISTAGSTNYGDSETGRFTISRDNAKKTVFLQMNSLKREDTAVYSCAAQVSTPYRYPRQILYDYWGQGTQVTVSS
polyreactivity (PSR sort gate): low polyreactivity

QVQLVESGGGLVQAGGSLRLSCAASGIIFYLYTIGWYRQAPGKEREFVADISSGTTTYYADSVKGRFTISRDNAKNTVYLQMNSLKPEDTAVYYCNAQYNYYTWKLAYTFDYWGQGTQVTVSS
polyreactivity (PSR sort gate): high polyreactivity

QVQLVESGGGLVQAGCSLRLSCAASGRIFYRNAMGWYRQAPGKERELVAGITRGGSTNYADSVKGRFTISRDNAKNNVYLQLNSLKPEDTAVYYCAKAIPAKFYSEAGYDYWGQGTQVTVSS
polyreactivity (PSR sort gate): low polyreactivity

QVQLVESCGGLVQAGGSLRLSCAASGRIFKYNPMGWYRQAPGQERELVASITASGGRTYYADSVKGRFTISRDIAKNTVYLQMNSLKTEDTAVYYCAAGRPFSKYGYWRQGTQVTVSS
polyreactivity (PSR sort gate): high polyreactivity

QVQLVESGGGLVQAGGSLRLSCAASGSIFEEYAMGWYRHAPGKERELVARIDESGGSTYYADSVKGRFTISRDNAKNTVYLQMNSLKPEDTAVYYCAAERYSDSWGYYSVDEGSWEMDYWGQGTQVTVSS
polyreactivity (PSR sort gate): low polyreactivity

QVQLQDSGGGLEQAGGSLRMSCAANGNIFDADIVGRYRQAQGKKRELVASITDGGITNYADSVKGRFTISRDNAKYTVYLQMNSQNPEDTAVYYCAAIAYPDIPTYFDYDSDFFYWGQGTQVTVSS
polyreactivity (PSR sort gate): high polyreactivity

QVQLVESGGGLVQAGGSLRLSCAASGNIFYVYVMGWYRQAPGKERELVASITSGASTYYADSVKGRFTISRDNAKNTVYLQMNSLKPEDTAVYYCAAEALGGAGDYSTLYIYDYWGQGTQVTVSS
polyreactivity (PSR sort gate): low polyreactivity

QVQLVESGGGLVQAGGSLRLSCAATGFTFHHYVMGWYRHAHGKEREFVASIRWRGGSTYYADSVKGRFTISRDNAKNTVYLQMNSLKPEDTAVYYCAADSFTYWSWLHGYWGQGTQVTVSS
polyreactivity (PSR sort gate): high polyreactivity

QVQLVESGGGLVQAGGSLRLSCAASGSTFTWYAMGWYRQAPGKERELVAAIRWSGGNTYYADSVKGRFTISRDTAKNTVYLHMNSLKPEDTGVYYCAAVSRTYSLQMYYWGQGTQVTVSS
polyreactivity (PSR sort gate): high polyreactivity

QVQLGESGGGLVQAGGSLRLICAASGFIVTTYVMGWYRQAPGKERELVAVISRSGGRTYYADSVKGRFTISRDNAKNTVYLQMNSLKPEDTAVYYCNVDIPVLSHIEYYYWGQGTQVTVSS
polyreactivity (PSR sort gate): low polyreactivity

QVQLQESGGGLVQAGGSLRLSCAASGYISAGRQMGWYRQAPGKEREFVATINGGATTNYADSVKGRFTISRDNAKNSVYLQMNSLKPEDTAVYYCAAVIWYVQDYTYWGQGAQVTVSS
polyreactivity (PSR sort gate): high polyreactivity

QVQLEDSGGGLVQAGGSLRLSCAASGFIFRYYAMGWYRKATGKERELVAAIDYSGGSTNYADSVKGRFTISRDNAKNTVYLQMNSLKPEDTAVYYCKAVHETTWQLYDYWGQGTQVTVSS
polyreactivity (PSR sort gate): low polyreactivity

QVQLVESGGGLVQAGGSLRLSCAASGFTFKSNAMGGYRQAPGKEREKVAAIDSRGDRTYYADSVKGRFTISRDNAKNTVYLQMNSLKPEDTAVYYCATKWRTYWSSGEYWGQGTQVTVSS
polyreactivity (PSR sort gate): high polyreactivity

QVQLVESGGGLVQAGGSLRLSCAASGRTFLIYAMGWYRQAPGKERELVAAITSGGRTKYADSVKGRFTISRDNAKNTVYLQMNSLKPEDTAVYYCAAESNRLRYYYWGQGTQVTVSS
polyreactivity (PSR sort gate): high polyreactivity

QVQLVDSGGGLVQAGGSLRLSCAASGFTFYLNTMGWYRQAPGKERELVAAIDLSDGTTYYADSVKGRFTISRDNAKNTVYLQMNSLKPEDTAVYYCAAESYEEWTSSGLDWTDDYWGQGTQVTVSS
polyreactivity (PSR sort gate): high polyreactivity

QVQLVESGGGLVQAGGSHRLSCAASGFTIVQYAMGWYRQAPGKERELVARISRNGGSTYYADSVKGRFTISRDNAKNTVYLQMNSLKPEDTAVYYCNALRGPVKYYSWGQGTQVTVSS
polyreactivity (PSR sort gate): low polyreactivity

QVQLVESGGGLVQAGGSLRLSCAASGRIYGVYALGWYRQAPGKERELVAAITSSGGSTYYADSVKGRFTISRDNAKNTVYLQMNSLKPEDTAVYYCAADNTFRDDYFLYYLFNYNYWGQGTQVTVSS
polyreactivity (PSR sort gate): low polyreactivity

QVQLVESGGGLVQAGGSLRLSCAASGIIFYYYAMGWYRQAPGTERELVARISLSGGSTYYADSVKGRFTISRDNAKNTVYLQMNSLKPEDTAVYYCATRSWYKRQTYDYWGQGTQVTVSS
polyreactivity (PSR sort gate): high polyreactivity

QVQLVESGGGLVQAGGSLRLSSAASGSTFLYYVMGWYRQARGKERELVAGITSRGASTYYADSVKGRFTFSRDNAKNTVYLQMNSLKPEDTAVYDCAKPGFTYPGRYNYWGQGTQVTVSS
polyreactivity (PSR sort gate): high polyreactivity

QVQLVESGGGLVQAGGSLRFSCAASGRIFTFYAMGWYRQAPGKERELVAAITSGGSTYYADSVKGRFTISRDNAKNTVYLQMNSLKPEDTAVYYCNALHHTQHDYWGQGTQVTVSS
polyreactivity (PSR sort gate): low polyreactivity

QVQLVESGGGLVQAGGSLRLICAASGRIFVGNTMGWYRQAPGKERELVAAITSSGGSTYYADSVKGRFTISRDNAKNTVYLQMNSLKPEDTAVYYCAARTREYQWRYYYWGQGTQVTVSS
polyreactivity (PSR sort gate): high polyreactivity

QVQLVESGGGLVQAGGSLRLSCAASGSIFGRNDMGWYRQAPRKERELLARITRGGSTNYADSVKGRVTISRDNAKYTVYLQMNSLKPEDTAVYYCAAGARQYRGVPDRYGYWGQGTQVTVSS
polyreactivity (PSR sort gate): low polyreactivity

QVQLVESWGGLVQAGGTLRLSCAPSGYIFYFNDMGCYIQAPGKERELVAAITWSGTGTYYADSVKGRFTISRDNAKNTVYLQMNSLKPEDTAVYYCAAREWTSQDRQHNYWGQGTQVTVSS
polyreactivity (PSR sort gate): low polyreactivity

QVQLVESGGGLVQAGGSLRLTCAASGFIFVTYAMGWYRQPPGKERELVAAITNSGGTTYYADSVKGRFTISRDNAKNTVYLQMNSLKPEDTAVYYCNIPYGAETAHREFDYWGQGTQVTVSS
polyreactivity (PSR sort gate): low polyreactivity

QVQLVESGGGLVQAGGSLRLSCAASRSIFRSYAMGWYTQAPGKERELVAAITSSSGSTYYADSVKGRFTISRDNAKNTVYLQMNSLKPEDTAVYYCNAPYWKSRFRAYYHWGQGTQVTVSS
polyreactivity (PSR sort gate): high polyreactivity

QVQLVESGGGLVQAGGSLRLSCAASGRTFYIYAMGWYRQAPGTERELVAAITYGGGRTFYADSVKGRFTISRDKAKNTVYLQMNSLKPEDTAVYYCAADGRTLGRRYYYWGLGTQVTVSS
polyreactivity (PSR sort gate): high polyreactivity

QVQLVESGGGLVQAGGSLSLSCAASGITFVIYVMGWYRQAPGKERELVAAISWIGGSTYYADSVKGRFTISRDYAKNTVYLQMNSLKPEDTAVYYCATDYVVVVSTGYDYWGQGTQVTVSS
polyreactivity (PSR sort gate): low polyreactivity

QVQLVESGGGLVQAGGSLRLSCDASGFTFYSYARGWYRQAPGKEREFVASISRSGGSTYYADSVKGRFTISRDNAKYTVYLQMNSLKAEDTEVYYCAARSVRDRDGGDYWGQGTQVTVSS
polyreactivity (PSR sort gate): high polyreactivity

QVQLVESGGGLVQAGGSLRLSCAASGSIFTLYAMGSYRQAPGKERELVAAITWSGGSTYYADSVKGRFTISRDNAKNTVYLQMNSLKPEDTAVYYCAKDYLAGGPWEGHVEREYDYWGQGTQVTVSS
polyreactivity (PSR sort gate): low polyreactivity
